Patent publication US20260000736A1, “PURIFIED LACTOFERRIN COMPOSITIONS AND METHODS OF USE” (Lactea Therapeutics LLC, priority 2023, published 2026)

Key:
[1] = system: cow with a large infected chronic wound on its leg; test: Case study of a cow with a large infected chronic wound; assay type: in vivo; conditions: three daily treatments as freeze dried powder into the wound bed
Description: (§1) Lactea Lactoferrin (Lactea-Lf) was produced as described in the above examples and freeze-dried by lyophilization into a powder. Lactea-Lf was then administered as the freeze-dried powder in a variety of animal wound contexts.
For these daily treatments, Lf was applied once on each day to cover the open wound area.

[2] = system: Extra-Cellular Matrix (ECM) of Caco-2 cells; test: Lactoferrin enrichment at the ECM by immunofluorescent imaging in Caco-2 cells; assay type: cell-based, human; conditions: varying concentrations, 37° C. for two hours
Description: To assess bioactivity of Lactoferrin, particularly for its potential as an antiviral, binding to the ECM was assessed. Purified Lactoferrin was produced according to Example 1. Caco-2 cells, a human-derived cell culture, cells were allowed to grow for three days after plating on a coverslip such that the cells could proliferate, and the ECM could fully develop. Purified Lactoferrin was then added to the cells at varying concentrations at 37° C. for two hours to allow it to bind as theorized. To directly observe the localization of the API we used Immunofluorescent (IF) imaging and stained both the API and E-cadherin, a cell membrane marker.
Primary localization internally was also observed at low concentrations, but given Lactoferrin has known intracellular roles and a receptor allowing for its uptake, fractional localization of Lactoferrin to the intracellular space was expected. To quantify the localization of the API, the absolute intensity of the fluorescent signal both just outside/along the E-cadherin mark as well as inside the cell was measured.

[3] = system: salivary human bacteria (including Lactobacillus, Lactococcus, Streptococcus mutans, and Porphyromonas gingivalis); test: Poultry surface treatment, chicken breast inoculated with salivary bacteria; conditions: 3 mg/mL surface treatment, 6 days at 37° C.
Description: Chicken breasts were inoculated with salivary human bacteria in a slurry as described above in pH testing (including Lactobacillus, Lactococcus, Streptococcus mutans, and Porphyromonas gingivalis) and left for 6 days at 37° C.

[4] = system: Staphylococcus epidermidis; test: Planktonic growth in culture, OD600; assay type: cell-based; conditions: 10-fold serial dilution of Lf, 18 hours
SARS-CoV-2 = SARS-CoV-2 Cytopathic Effect (CPE) reduction assay in Vero E6 cells; assay type: cell-based; conditions: Vero E6 cells, MOI of 0.001, neutral red, three days post-infection
[5] = assay type: binding; conditions: ITC, Lf 5 mg/mL in 100 mM MOPS buffer pH 7, HS approximately 100 µM
Candida auris = test: Biofilm formation, crystal violet assay; assay type: cell-based; conditions: 24 hours of growth
Bifidobacterium longum = test: Planktonic growth in culture, OD600; assay type: cell-based; conditions: 10-fold serial dilution of Lf, 18 hours
[6] = ITC-based assay, binding to LPS
E. coli 0157 = test: Bacterial growth timecourse, OD600; assay type: cell-based; conditions: 1 mg/mL; for Bacterial Growth Timecourse, Replicate 1 / Bacterial Growth Timecourse, Replicate 2 / Bacterial Growth Timecourse, Replicate 3: OD600 relative to no treatment control at 24 hours
Description: For a more detailed comparison of Lactea-Lf antimicrobial activity relative to the Sigma Aldrich Lactoferrin, Lactea-Lf and Sigma Aldrich Lactoferrin were incubated at 1 mg/mL with for E. coli 0157 in LB seeded at 10∝CFU/mL. […] Results were quantified and reported as a percent of the OD600 of the no treatment control at 24 hours for all timepoints.

[7] = system: mice with two 10 mm puncture wounds through the skin; test: Mouse puncture wound model, survival; assay type: in vivo
Description: as §1
In a first assessment in a mouse model setting, mice were anesthetized with isoflurane and two 10 mm puncture wounds were made through the skin of each mouse on the back. Three of the mice were treated with Lf added as a freeze dried powder directly into the wound bed while anesthetized immediately after wounds were made, while the three other mice were left completely untreated. Mice were then transferred to non-sterile housing and observed daily.

Cryptococcus neoformans = test: Biofilm formation, crystal violet assay; assay type: cell-based; conditions: 24 hours of growth
[8] = system: ECM of primary buccal cells; test: ECM association by immunofluorescence in primary buccal cells; assay type: cell-based; conditions: 100 µg/mL for 1 hr at 37 C
Description: Primary buccal cells were next cultured according to a standard protocol (e.g., see Russo et al. Cytotechnology. 2016 October; 68(5): 2105-2114; herein incorporated by reference for all purposes). […] Immunofluorescence imaging was performed as previously described.

Pseudomonas aeruginosa = test: Biofilm formation, crystal violet assay; assay type: cell-based; conditions: 24 hours of growth
Enterobacter cloacae = test: Biofilm formation, crystal violet assay; assay type: cell-based; conditions: 24 hours of growth
Staphylococcus aureus = test: Biofilm formation, crystal violet assay; assay type: cell-based; conditions: 24 hours of growth
[9] = DSC iron binding capability with excess FeCl3; conditions: FeCl3 added in 1000× molar excess
Description: The DSC assay was further used to assess Lactoferrin bioactivity, specifically the iron binding capability of the API-E2 Lactoferrin. Iron chloride (FeCl3) was added in 1000× molar excess to API-E2 Lactoferrin. In the presence of excess iron, the API-E2 lactoferrin will bind the iron to its open iron binding site.

[10] = system: Salivary bacteria (including Lactobacillus, Lactococcus, and Streptococcus mutans); test: Salivary bacteria acid production, pH over time; assay type: cell-based; conditions: in the presence of sucrose, entire 6 hour testing period
Description: Salivary bacteria (including Lactobacillus, Lactococcus, and Streptococcus mutans) produce acid during growth. This acidification is strongly associated with tooth decay, particularly when it results in pH below 5.5, which is a clinically relevant threshold. A slurry of these bacteria were treated with sucrose to stimulate growth, as well as varying concentrations of API-E2 lactoferrin. Upon the addition of sucrose and API-E2 lactoferrin, the pH was adjusted to 7 through a titration and the change in pH was subsequently monitored over the next 6 hours.

B1: Lactea-Lf: bovine lactoferrin purified from raw untreated milk by cation exchange chromatography and filtration according to Example 1 (protein)
chain: APRKNVRWCTISQPEWFKCRRWQWRMKKLGAPSITCVRRAFALECIRAIAEKKADAVTLDGGMVFEAGRDPYKLRPVAAEIYGTKESPQTHYYAVAVVKKGSNFQLDQLQGRKSCHTGLGRSAGWVIPMGILRPYLSWTESLEPLQGAVAKFFSASCVPCIDRQAYPNLCQLCKGEGENQCACSSREPYFGYSGAFKCLQDGAGDVAFVKETTVFENLPEKADRDQYELLCLNNSRAPVDAFKECHLAQVPSHAVVARSVDGKEDLIWKLLSKAQEKFGKNKSRSFQLFGSPPGQRDLLFKDSALGFLRIPSKVDSALYLGSRYLTTLKNLRETAEEVKARYTRVVWCAVGPEEQKKCQQWSQQSGQNVTCATASTTDDCIVLVLKGEADALNLDGGYIYTAGKCGLVPVLAENRKTSKYSSLDCVLRPTEGYLAVAVVKKANEGLTWNSLKDKKSCHTAVDRTAGWNIPMGLIVNQTGSCAFDEFFSQSCAPGRDPKSRLCALCAGDDQGLDKCVPNSKEKYYGYTGAFRCLAEDVGDVAFVKNDTVWENTNGESTADWAKNLNREDFRLLCLDGTRKPVTEAQSCHLAVAPNHAVVSRSDRAAHVKQVLLHQQALFGKNGKNCPDKFCLFKSETKNLLFNDNTECLAKLGGRPTYEEYLGTEYVTAIANLKKCSTSPLLEACAFLTR
healing of infected chronic wound [1]: the wound was completely healed after it was checked after three weeks
Lactoferrin localization at the ECM (IF imaging) [2]: enrichment at the ECM was observed as concentration increased
bacterial growth on chicken breast [3]: no detectable growth of any bacteria colonies
Inhibition of Planktonic Growth [4]: None
EC50 (SARS-CoV-2): 90 nM
binding to Heparan Sulfate [5]: far greater binding to Heparan Sulfate than the research standard
Inhibition of Biofilm Formation (Candida auris): Strong (Lf was deemed to have a strong activity if biofilms were eliminated or significantly reduced to less than 90% less than no treatment at concentrations of 10 mg/mL or less after 24 hours of growth)
Inhibition of Planktonic Growth (Bifidobacterium longum): None
binding to LPS [6]: binds to LPS
competition of LPS binding with HS binding [6]: competitive with HS binding
inhibition of bacterial growth over time (E. coli 0157; E. coli 0157 in LB): near complete inhibition of bacterial growth up to 18 hours
time at which bacterial growth became observable / evident (E. coli 0157; E. coli 0157 in LB): 21 h
Bacterial Growth Timecourse, Replicate 1 (E. coli 0157; 3 h): −0.00372
Bacterial Growth Timecourse, Replicate 2 (E. coli 0157; 3 h): −0.00129
Bacterial Growth Timecourse, Replicate 3 (E. coli 0157; 3 h): 0.02246
Bacterial Growth Timecourse, Replicate 1 (E. coli 0157; 6 h): 0.007916
Bacterial Growth Timecourse, Replicate 2 (E. coli 0157; 6 h): 0.01196
Bacterial Growth Timecourse, Replicate 3 (E. coli 0157; 6 h): 0.03279
Bacterial Growth Timecourse, Replicate 1 (E. coli 0157; 9 h): 0.01583
Bacterial Growth Timecourse, Replicate 2 (E. coli 0157; 9 h): 0.02246
Bacterial Growth Timecourse, Replicate 3 (E. coli 0157; 9 h): 0.02019
Bacterial Growth Timecourse, Replicate 1 (E. coli 0157; 12 h): 0.04443
Bacterial Growth Timecourse, Replicate 2 (E. coli 0157; 12 h): 0.04136
Bacterial Growth Timecourse, Replicate 3 (E. coli 0157; 12 h): 0.02633
Bacterial Growth Timecourse, Replicate 1 (E. coli 0157; 15 h): 0.04976
Bacterial Growth Timecourse, Replicate 2 (E. coli 0157; 15 h): 0.05816
Bacterial Growth Timecourse, Replicate 3 (E. coli 0157; 15 h): 0.04685
Bacterial Growth Timecourse, Replicate 1 (E. coli 0157; 18 h): 0.04152
Bacterial Growth Timecourse, Replicate 2 (E. coli 0157; 18 h): 0.0399
Bacterial Growth Timecourse, Replicate 3 (E. coli 0157; 18 h): 0.04281
Bacterial Growth Timecourse, Replicate 1 (E. coli 0157; 21 h): 0.1997
Bacterial Growth Timecourse, Replicate 2 (E. coli 0157; 21 h): 0.1696
Bacterial Growth Timecourse, Replicate 3 (E. coli 0157; 21 h): 0.106
Bacterial Growth Timecourse, Replicate 1 (E. coli 0157; 24 h): 0.3648
Bacterial Growth Timecourse, Replicate 2 (E. coli 0157; 24 h): 0.2898
Bacterial Growth Timecourse, Replicate 3 (E. coli 0157; 24 h): 0.2034
survival of mice following wounding ([7]; freeze dried powder directly into the wound bed, non-sterile housing, study to day 28, all three untreated mice died by day 12): only one mouse died at day 14 and the other two survived to the conclusion of the study at day 28
toxicity of powder administered to wounds ([7]; mice, freeze-dried powder of pure Lf administered to the wounds): no toxicity was observed
Inhibition of Biofilm Formation (Cryptococcus neoformans): Strong (Lf was deemed to have a strong activity if biofilms were eliminated or significantly reduced to less than 90% less than no treatment at concentrations of 10 mg/mL or less after 24 hours of growth)
ECM association of Lactoferrin (immunofluorescence imaging) [8]: strong binding along the ECM
Inhibition of Biofilm Formation (Pseudomonas aeruginosa): Strong (Lf was deemed to have a strong activity if biofilms were eliminated or significantly reduced to less than 90% less than no treatment at concentrations of 10 mg/mL or less after 24 hours of growth)
Inhibition of Biofilm Formation (Enterobacter cloacae): Strong (Lf was deemed to have a strong activity if biofilms were eliminated or significantly reduced to less than 90% less than no treatment at concentrations of 10 mg/mL or less after 24 hours of growth)
Inhibition of Biofilm Formation (Staphylococcus aureus): Strong (Lf was deemed to have a strong activity if biofilms were eliminated or significantly reduced to less than 90% less than no treatment at concentrations of 10 mg/mL or less after 24 hours of growth)
available Apolactoferrin shifted to the Hololactoferrin form [9]: 100%
pH of salivary bacteria slurry ([10]; 1 mg/mL): above 5.5
pH of salivary bacteria slurry ([10]; 10 mg/mL): above 5.5
